Data taken from publication PMC8270960, “Native flagellar MS ring is formed by 34 subunits with 23-fold and 11-fold subsymmetries” (Nature Communications, 2021).
Several values for one entry are separate records, joined by “and”; a condition that tells them apart may be missing. Equal values may be shown once.

Columns and labels:
[1] = target: FliG ΔPAA of the C ring of the CW-locked basal body (Salmonella enterica serovar Typhimurium (in TM022)) (UniProt P0A1J9); test: cryo-EM structure; end-on view cryoEM images of the C ring of purified wild-type (CCW) and CW mutant basal bodies; rotational symmetry of single particles by autocorrelation and Fourier transformation (98 and 75 particles)
[2] = target: the molecule itself; test: cryo-EM structure; rings of FliF_(1-503) and FliF_(1-456) in Buffer S with 0.1% Triton-X100; 3D classification and reconstruction with C1 symmetry
[3] = target: the molecule itself; test: cryo-EM structure; 2D class averages of end-on views of the basal body (rivet) purified from Salmonella HK1003; rotational symmetry by autocorrelation and Fourier transformation; assembly formed in cells, purified as a whole
[4] = target: the molecule itself; test: negative-stain EM; MS rings purified from E. coli cells overexpressing mutant variants of FliF, observed by negative staining EM
[5] = target: the molecule itself; test: cryo-EM structure; MS ring of full-length FliF (dataset 2, pKOT105); 3D refinement with C1, C11 and C34 symmetry (12, 9.0 and 7.4 Å)

| Molecule | binding result [4] | also measured |
| --- | --- | --- |
| FliG ΔPAA of the C ring of the CW-locked basal body (from UniProt P0A1J9 1-331) (natural protein) |  | stoichiometry N [1]: 33 -fold to 36 -fold (2×) and 34 -fold |
| FliF_(1-503) (domain or fragment, also called C-terminally-truncated FliF fragment with 57 residues truncated; copies: 33) MSATASTATQPKPLEWLNRLRANPRIPLIVAGSAAVAIVVAMVLWAKTPDYRTLFSNLSDQDGGAIVAQLTQMNIPYRFANGSGAIEVPADKVHELRLRLAQQGLPKGGAVGFELLDQEKFGISQFSEQVNYQRALEGELARTIETLGPVKSARVHLAMPKPSLFVREQKSPSASVTVTLEPGRALDEGQISAVVHLVSSAVAGLPPGNVTLVDQSGHLLTQSNTSGRDLNDAQLKFANDVESRIQRRIEAILSPIVGNGNVHAQVTAQLDFANKEQTEEHYSPNGDASKATLRSRQLNISEQVGAGYPGGVPGALSNQPAPPNEAPIATPPTNQQNAQNTPQTSTSTNSNSAGPRSTQRNETSNYEVDRTIRHTKMNVGDIERLSVAVVVNYKTLADGKPLPLTADQMKQIEDLTREAMGFSDKRGDTLNVVNSPFSAVDNTGGELPFWQQQSFIDQLLAAGRWLLVLVVAWILWRKAVRPQLTRRVEEAKAAQEQAQVRQE |  | stoichiometry N [2]: 33 -fold |
| FliF of the native flagellar basal body (native MS ring) (natural protein, source: endogenous, basal body purified from Salmonella HK1003 (sucrose density gradient); copies: 34) MSATASTATQPKPLEWLNRLRANPRIPLIVAGSAAVAIVVAMVLWAKTPDYRTLFSNLSDQDGGAIVAQLTQMNIPYRFANGSGAIEVPADKVHELRLRLAQQGLPKGGAVGFELLDQEKFGISQFSEQVNYQRALEGELARTIETLGPVKSARVHLAMPKPSLFVREQKSPSASVTVTLEPGRALDEGQISAVVHLVSSAVAGLPPGNVTLVDQSGHLLTQSNTSGRDLNDAQLKFANDVESRIQRRIEAILSPIVGNGNVHAQVTAQLDFANKEQTEEHYSPNGDASKATLRSRQLNISEQVGAGYPGGVPGALSNQPAPPNEAPIATPPTNQQNAQNTPQTSTSTNSNSAGPRSTQRNETSNYEVDRTIRHTKMNVGDIERLSVAVVVNYKTLADGKPLPLTADQMKQIEDLTREAMGFSDKRGDTLNVVNSPFSAVDNTGGELPFWQQQSFIDQLLAAGRWLLVLVVAWILWRKAVRPQLTRRVEEAKAAQEQAQVRQETEEAVEVRLSKDEQLQQRRANQRLGAEVMSQRIREMSDNDPRVVALVIRQWMSNDHE |  | stoichiometry N [3]: 34 subunits |
| FliF(V266A), overexpressed in E. coli (natural protein, source: E. coli, overexpressed, MS rings purified) MSATASTATQPKPLEWLNRLRANPRIPLIVAGSAAVAIVVAMVLWAKTPDYRTLFSNLSDQDGGAIVAQLTQMNIPYRFANGSGAIEVPADKVHELRLRLAQQGLPKGGAVGFELLDQEKFGISQFSEQVNYQRALEGELARTIETLGPVKSARVHLAMPKPSLFVREQKSPSASVTVTLEPGRALDEGQISAVVHLVSSAVAGLPPGNVTLVDQSGHLLTQSNTSGRDLNDAQLKFANDVESRIQRRIEAILSPIVGNGNVHAQATAQLDFANKEQTEEHYSPNGDASKATLRSRQLNISEQVGAGYPGGVPGALSNQPAPPNEAPIATPPTNQQNAQNTPQTSTSTNSNSAGPRSTQRNETSNYEVDRTIRHTKMNVGDIERLSVAVVVNYKTLADGKPLPLTADQMKQIEDLTREAMGFSDKRGDTLNVVNSPFSAVDNTGGELPFWQQQSFIDQLLAAGRWLLVLVVAWILWRKAVRPQLTRRVEEAKAAQEQAQVRQETEEAVEVRLSKDEQLQQRRANQRLGAEVMSQRIREMSDNDPRVVALVIRQWMSNDHE | binds |  |
| FliF(I252A), overexpressed in E. coli (natural protein, source: E. coli, overexpressed, MS rings purified) MSATASTATQPKPLEWLNRLRANPRIPLIVAGSAAVAIVVAMVLWAKTPDYRTLFSNLSDQDGGAIVAQLTQMNIPYRFANGSGAIEVPADKVHELRLRLAQQGLPKGGAVGFELLDQEKFGISQFSEQVNYQRALEGELARTIETLGPVKSARVHLAMPKPSLFVREQKSPSASVTVTLEPGRALDEGQISAVVHLVSSAVAGLPPGNVTLVDQSGHLLTQSNTSGRDLNDAQLKFANDVESRIQRRIEAALSPIVGNGNVHAQVTAQLDFANKEQTEEHYSPNGDASKATLRSRQLNISEQVGAGYPGGVPGALSNQPAPPNEAPIATPPTNQQNAQNTPQTSTSTNSNSAGPRSTQRNETSNYEVDRTIRHTKMNVGDIERLSVAVVVNYKTLADGKPLPLTADQMKQIEDLTREAMGFSDKRGDTLNVVNSPFSAVDNTGGELPFWQQQSFIDQLLAAGRWLLVLVVAWILWRKAVRPQLTRRVEEAKAAQEQAQVRQETEEAVEVRLSKDEQLQQRRANQRLGAEVMSQRIREMSDNDPRVVALVIRQWMSNDHE | binds |  |
| full-length Salmonella FliF (MS ring, dataset 2, from pKOT105) (natural protein, also called FliF overexpressed from another construct; FliF ring dataset 2; source: E. coli BL21 (DE3) carrying pKOT105, MS ring purified from the membrane fraction (sucrose gradient, LMNG); copies: 34) MSATASTATQPKPLEWLNRLRANPRIPLIVAGSAAVAIVVAMVLWAKTPDYRTLFSNLSDQDGGAIVAQLTQMNIPYRFANGSGAIEVPADKVHELRLRLAQQGLPKGGAVGFELLDQEKFGISQFSEQVNYQRALEGELARTIETLGPVKSARVHLAMPKPSLFVREQKSPSASVTVTLEPGRALDEGQISAVVHLVSSAVAGLPPGNVTLVDQSGHLLTQSNTSGRDLNDAQLKFANDVESRIQRRIEAILSPIVGNGNVHAQVTAQLDFANKEQTEEHYSPNGDASKATLRSRQLNISEQVGAGYPGGVPGALSNQPAPPNEAPIATPPTNQQNAQNTPQTSTSTNSNSAGPRSTQRNETSNYEVDRTIRHTKMNVGDIERLSVAVVVNYKTLADGKPLPLTADQMKQIEDLTREAMGFSDKRGDTLNVVNSPFSAVDNTGGELPFWQQQSFIDQLLAAGRWLLVLVVAWILWRKAVRPQLTRRVEEAKAAQEQAQVRQETEEAVEVRLSKDEQLQQRRANQRLGAEVMSQRIREMSDNDPRVVALVIRQWMSNDHE |  | stoichiometry N [5]: 34 subunits |
| FliF(L253A), overexpressed in E. coli (natural protein, source: E. coli, overexpressed, MS rings purified) MSATASTATQPKPLEWLNRLRANPRIPLIVAGSAAVAIVVAMVLWAKTPDYRTLFSNLSDQDGGAIVAQLTQMNIPYRFANGSGAIEVPADKVHELRLRLAQQGLPKGGAVGFELLDQEKFGISQFSEQVNYQRALEGELARTIETLGPVKSARVHLAMPKPSLFVREQKSPSASVTVTLEPGRALDEGQISAVVHLVSSAVAGLPPGNVTLVDQSGHLLTQSNTSGRDLNDAQLKFANDVESRIQRRIEAIASPIVGNGNVHAQVTAQLDFANKEQTEEHYSPNGDASKATLRSRQLNISEQVGAGYPGGVPGALSNQPAPPNEAPIATPPTNQQNAQNTPQTSTSTNSNSAGPRSTQRNETSNYEVDRTIRHTKMNVGDIERLSVAVVVNYKTLADGKPLPLTADQMKQIEDLTREAMGFSDKRGDTLNVVNSPFSAVDNTGGELPFWQQQSFIDQLLAAGRWLLVLVVAWILWRKAVRPQLTRRVEEAKAAQEQAQVRQETEEAVEVRLSKDEQLQQRRANQRLGAEVMSQRIREMSDNDPRVVALVIRQWMSNDHE | binds |  |
| FliF(I252R), overexpressed in E. coli (natural protein, source: E. coli, overexpressed, MS rings purified) MSATASTATQPKPLEWLNRLRANPRIPLIVAGSAAVAIVVAMVLWAKTPDYRTLFSNLSDQDGGAIVAQLTQMNIPYRFANGSGAIEVPADKVHELRLRLAQQGLPKGGAVGFELLDQEKFGISQFSEQVNYQRALEGELARTIETLGPVKSARVHLAMPKPSLFVREQKSPSASVTVTLEPGRALDEGQISAVVHLVSSAVAGLPPGNVTLVDQSGHLLTQSNTSGRDLNDAQLKFANDVESRIQRRIEARLSPIVGNGNVHAQVTAQLDFANKEQTEEHYSPNGDASKATLRSRQLNISEQVGAGYPGGVPGALSNQPAPPNEAPIATPPTNQQNAQNTPQTSTSTNSNSAGPRSTQRNETSNYEVDRTIRHTKMNVGDIERLSVAVVVNYKTLADGKPLPLTADQMKQIEDLTREAMGFSDKRGDTLNVVNSPFSAVDNTGGELPFWQQQSFIDQLLAAGRWLLVLVVAWILWRKAVRPQLTRRVEEAKAAQEQAQVRQETEEAVEVRLSKDEQLQQRRANQRLGAEVMSQRIREMSDNDPRVVALVIRQWMSNDHE | binds |  |
| FliF(V266R), overexpressed in E. coli (natural protein, source: E. coli, overexpressed, MS rings purified) MSATASTATQPKPLEWLNRLRANPRIPLIVAGSAAVAIVVAMVLWAKTPDYRTLFSNLSDQDGGAIVAQLTQMNIPYRFANGSGAIEVPADKVHELRLRLAQQGLPKGGAVGFELLDQEKFGISQFSEQVNYQRALEGELARTIETLGPVKSARVHLAMPKPSLFVREQKSPSASVTVTLEPGRALDEGQISAVVHLVSSAVAGLPPGNVTLVDQSGHLLTQSNTSGRDLNDAQLKFANDVESRIQRRIEAILSPIVGNGNVHAQRTAQLDFANKEQTEEHYSPNGDASKATLRSRQLNISEQVGAGYPGGVPGALSNQPAPPNEAPIATPPTNQQNAQNTPQTSTSTNSNSAGPRSTQRNETSNYEVDRTIRHTKMNVGDIERLSVAVVVNYKTLADGKPLPLTADQMKQIEDLTREAMGFSDKRGDTLNVVNSPFSAVDNTGGELPFWQQQSFIDQLLAAGRWLLVLVVAWILWRKAVRPQLTRRVEEAKAAQEQAQVRQETEEAVEVRLSKDEQLQQRRANQRLGAEVMSQRIREMSDNDPRVVALVIRQWMSNDHE | binds |  |
| FliF(L253R), overexpressed in E. coli (natural protein, source: E. coli, overexpressed, MS rings purified) MSATASTATQPKPLEWLNRLRANPRIPLIVAGSAAVAIVVAMVLWAKTPDYRTLFSNLSDQDGGAIVAQLTQMNIPYRFANGSGAIEVPADKVHELRLRLAQQGLPKGGAVGFELLDQEKFGISQFSEQVNYQRALEGELARTIETLGPVKSARVHLAMPKPSLFVREQKSPSASVTVTLEPGRALDEGQISAVVHLVSSAVAGLPPGNVTLVDQSGHLLTQSNTSGRDLNDAQLKFANDVESRIQRRIEAIRSPIVGNGNVHAQVTAQLDFANKEQTEEHYSPNGDASKATLRSRQLNISEQVGAGYPGGVPGALSNQPAPPNEAPIATPPTNQQNAQNTPQTSTSTNSNSAGPRSTQRNETSNYEVDRTIRHTKMNVGDIERLSVAVVVNYKTLADGKPLPLTADQMKQIEDLTREAMGFSDKRGDTLNVVNSPFSAVDNTGGELPFWQQQSFIDQLLAAGRWLLVLVVAWILWRKAVRPQLTRRVEEAKAAQEQAQVRQETEEAVEVRLSKDEQLQQRRANQRLGAEVMSQRIREMSDNDPRVVALVIRQWMSNDHE | binds |  |
